Molecular target: T1, BnaA01.KAN3-His (Brassica napus cv. Zhongshuang 11, UniProt A0A816XN48 1-312)
T1 sequence: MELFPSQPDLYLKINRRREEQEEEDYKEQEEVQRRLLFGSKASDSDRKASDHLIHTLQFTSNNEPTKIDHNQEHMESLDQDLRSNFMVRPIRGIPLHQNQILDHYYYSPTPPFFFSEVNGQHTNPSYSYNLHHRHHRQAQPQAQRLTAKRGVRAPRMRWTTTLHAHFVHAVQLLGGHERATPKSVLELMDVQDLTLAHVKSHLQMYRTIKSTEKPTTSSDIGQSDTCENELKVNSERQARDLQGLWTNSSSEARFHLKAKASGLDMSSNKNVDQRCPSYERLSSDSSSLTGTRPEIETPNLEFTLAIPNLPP
Assay: EMSA; LightShift Chemiluminescent EMSA Kit (Thermo 20148); buffer, salt, pH and temperature not stated
Details: protein: recombinant; tags: His (pET28a); label: biotin 3' end; blunt

B1: P1BS EMSA probe (dsDNA)
DNA 1: AGACTTTGATTTGCATTATTGCATATACGTAGTAGTATAATGGTACTATC
DNA 2: GATAGTACCATTATACTACTACGTATATGCAATAATGCAAATCAAAGTCT
B1: binds.

Reference: article PMC12251713, “The Novel Transcription Factor BnaA01.KAN3 Is Involved in the Regulation of Anthocyanin Accumulation Under Phosphorus Starvation”
